{"source": "paper PMC9296380", "about": "“Characterisation of recombinant GH 3 β-glucosidase from β-glucan producing Levilactobacillus brevis TMW 1.2112” (Antonie Van Leeuwenhoek, 2022)", "proteins": {"B1": {"name": "BglB (Levilactobacillus brevis) (protein)", "chain": "MDIERTLAELTLPEKAALVSGKNNWYTAAVDRLDLPALMMTDGPSGLRKQTNSGTTNINDAIQAITYPAAALSASTWNESLMHQLGEHLGIEARAEQVSLLLGPGVNMKRSPLGGRNFEYLAEDPLVAGKLGSAYVQGVQSQHVGVAVKHFAANNRENQRFTASSDMSERTLRELYLRTFEIIVKSAYPATIMTSYNKINGVLNSQNERLLRRILRDEWGFHGAVMSDWGAVANTVQALKAGLDLEMPGKGQASVNDIIRAVHTGELDEGTLNKAVRHLLHVVDDWLPADHAQPYDHAAHHQFARKLADDGIILLKNHEDELPLDPQTTGKVVVIGELAENPRFQGSGSSHVNPTKLVSPLDALADSGLKADYYPGYRLDQSETNGDLAEAALTAAKTADHVIIFAGYPETAESEGFDKASLMLPENQSDLIGSLAKANVHTTVVLQNGSAVEMPWIHSVAAVVETYLAGEAVGEATWDIITGAVNPSGHLTETFPRRLTDTPMAPTFGQDPHHEYYTEGIFMGYRYYDTHEMHVLFPFGHGLSYTTFEYTNLKLTQNERGATVTFDVTNTGARSGQAVPQLYIANHASHVPMPTKELRAFTKVAIAPGETETVTLALDRRDFSWWCEPKARWQADSGDYEVMIGESSRDIRLQVKLTMDFKNSPAPITTETYMAAIVKNPQLRDLFKQVVLAPEYAGPENFLATTDDQGSLQIFQDRMFMNMPLRAVVALGGPQALITDFITRANTLLRQ", "notes": "no signal peptide predicted; C-terminal His tag (stop codon removed, Myc region excised) from pBAD/Myc-His A; expressed in E. coli BL21, Ni-NTA purified; primer-encoded N-terminus MDIERTLAEL"}}, "substrate": "O=[N+]([O-])c1ccc(O[C@@H]2O[C@H](CO)[C@@H](O)[C@H](O)[C@H]2O)cc1", "assay": "purified protein", "format": "biochemical, Levilactobacillus brevis", "settings": "50 mM PBS buffer pH 7, 37 °C, 0.01-20 mM substrate", "data": [{"protein": "B1", "values": [{"measurement": "Km", "value": 0.22, "unit": "mM"}, {"measurement": "kcat", "value": 59.58, "unit": "s⁻¹"}]}]}
